pEC50: −log10 of the molar value.
Legend:
[1] = molecular target: cynomolgus BCMA (cyno-BCMA), as used in SPR (cynomolgus monkey); test: SPR
[2] = molecular target: BCMA on the BCMA+ cell lines (NCI-H929, L363, JJN-3, RPMI-8226, HEK293T-huBCMA, HEK293T-cynoBCMA); test: flow cytometry on BCMA+ cell lines

Chain of cynomolgus BCMA (cyno-BCMA), as used in SPR (cynomolgus monkey) (chain, as listed by the source): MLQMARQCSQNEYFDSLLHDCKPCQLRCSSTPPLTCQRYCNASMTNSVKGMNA

fold higher affinity than to rodent BCMA [1]: 10 fold | pEC50 [2]: 7.82 to 8.47
Substance: CC-93269, bispecific trivalent anti-BCMA/anti-CD3 T cell engaging antibody (TCE) (bispecific antibody)

Reference: WO2020219978A1
